Test results taken from the nanobody polyreactivity screen of Harvey et al. (2022).

Assay: yeast display, Sf9 membrane polyspecificity reagent, FACS + sequencing; frameworks hold sequencing errors
In short: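 Nanobodies came from a synthetic yeast display library in Saccharomyces cerevisiae BJ5465, induced with galactose for 36–48 hours and stained for 1 hour at 4 °C with 10% biotinylated, detergent-solubilized Sf9 membrane reagent. Cells were enriched on streptavidin microbeads and then FACS-sorted, with low and high (top ~1%) gates set on anti-HA fluorescence for expression and streptavidin fluorescence for reagent binding. Each polyreactivity label reflects the gate a clone came from. Genes were amplified by colony PCR, sequenced by MiSeq 2 × 250 and filtered by CDR length.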

Sequence	polyreactivity (PSR sort gate)
QVQLVESGGGLVQAGGSLRLSCAASGSIFYNYAMGWYRQAPGKERELVATITRSDGSTYYADSVKGRFTISRENAKNTVYLQMNSLKPEDTAVYYCAADSGSTSEYEYWGQGTQGTVSS	low polyreactivity
QVQLVESGGGLVQAGGSLRLSCAASGFTFGSYAMGWYRQAPGKEREFVAAISLGGARTYYADSVKGRFTISRDNAKNTVYLQMNSLKPEDTAVYYCNARGIGRSTKWSSRDYWGQGTQVTVSS	high polyreactivity
QVQLVESGGGLVQAGGSLRLSCAASGFTFYGYVMGWYRQAPGKERELVASIRSRGSRTSYADSVKGRFTISRDNAKNTVYLQMNSLKPEDTAVYYCAASRGRLPYSSTSNGDYDYWGQGTQVTVSS	high polyreactivity
QVQLVESGGGLVQAGGSLRLSCAASGRIFGVYAMGWSRQAPGKERELGAGITDRGGRTYYADSVKGRFTISRDNAKNTVYLQMNSLKPEDTAVYYCNAGSLHRRYYYEGDYWGQGTQVTVSS	high polyreactivity
QVQLVETGGGLVQAGGSLRLSCAASGFTFFYYDMGWYRQAPGKERELVADITTGGSTNYADSVKGRFTISRDNAKNTVYFQMNSLKTEDTAVYYCAAATTYPYGYYYWGQGTEVTVSS	high polyreactivity
QVQLEESGGGLVQAGGSLRLSCAASGYTSLYYGMGWYRQAPGKERELVASISRGGSTYADSVKGRFTISRDNAKNTVYLLMNRLKPEDTAVYYCNADGGWDDPWSGWVEYDYWGQGTQVTGSS	low polyreactivity
QVQLVESGGGLVQAGGSLRLSCAASGIIFWKYAMGWYRQAPGKERELVAAISSRGGSTYYADSVKGRLTISRDNAKNTVYLQMNSLKPEDTAVYYCAGEDWYYGFDYWRQGTQVTVSS	high polyreactivity
QVQLVESGGGLVQAGGSLRISCAASGSTFEYYAMGWYRQAPGKERELVATISIDGRTNYADSVKGRFTISRDNAKKTVYLQMNSLKPEDTAVYYCAARPYWRHRYDYWGQGTQVTVSS	low polyreactivity
QVQLVESGGGLVQAGGSLRLSCAASGRIFAYNAMGWSRQAPGKERELVAAITWSGGTTYYADSVKGRFTISRDNAKNTVYLQMNSLKPEDTAVYYCAASRRYGGYRFDYWGQGTQVTVSS	high polyreactivity
QVQLVESGGGLVQAGGSLRLSCAASGSILSLYTMGWYRQAPGKERELVARISRSGGSTYYADSVKGRFTISRDNAKNTVYLQMNSLKTEDTAVYYCAARPYVVIYYGKSRGYYWGQGTQVTVSS	high polyreactivity
QVQLVESGGGLVQAGGSLRLSCAASGSIFRRYAMGWYRQAPGKERELVAAISTRGGSTYYADSVKGRFTISRDNAKNTVYLQMNSLKPEDTAVYYCAVKGSGGPKYDYWGQGTQVTVAS	high polyreactivity
QVQLVESGGGLVQAGGSLRLSCAASGGTFWLYAMGWYRQAPGKEREFVAAISYSGGSTYYADSVKGRFTISRDHAKNTVYLQMNSLKPEDTAVYYCAASAYYLDYDYWGQGTQVTVSS	high polyreactivity
QVQLVESGGGLVQAGGSLRLSCAASGSTFYIYGMGWYRQAPGKERELVAAISQRDGSTYYADSEKGRFTSSRDNAKNTVYLQMNSLKPEDTAVYYCNAGLWYSSYDSDYWGQGTQVTVSS	low polyreactivity
QVQHVESGGGLVQAGGSLRLSCAASGFIFRNYAMGWYRQAPGKERELVAAISSRGGSTYYADSVKGRFTISRDNAKNTVYLQMNRLKPEVTAVYYCARRYFYTYGYWGQGSQVTVSS	high polyreactivity
QVQLVEAGGGFYQPGGSLRLSCAASGRTFSYYASGWYRQAPGKERELVAAITDSGDSTYYADSVKGRFTISRDNANNTVYLQMKSLKPEDTAVYDCAATTYSWYDYWGQGTQVTVSS	high polyreactivity
QVQHVESGGGLVQAGGSLRLSCAASGRTFYNYAKGWYRQAPGKERELVAGITSCGGSTYYADSVKGRFTISRDNAKNTVYLQMNSLKPEDTAVYYCARVWPSQKHYYWGQGTQVTVSS	high polyreactivity
QVQLVESGGGLVQAGGSLRLSCAASGSTFVRYVMGWYRQAPGKERELVAAISRRGGSTYYADSVKGRFTISRDNAKNTVYLQMHSLKPEDSAVYYCARTVGYSTLLESVSWGQGTQLTVSS	high polyreactivity
QVQLVESGGGLVQAGGSLRLSCAASGRTFYRNAMGWYRPAPGKERELVAAITSSGASTYYADSVKGRFTISRDNAKNTVYLQMKSLKPEDTAVYYCAAKYVFSVGNYRYDYWGQGTQVTGSS	low polyreactivity
QVQLVESGGGLVQAGGSLRLSCAASGSIFSGNPMGWYRQAPGKERELVAAIDWSGDSTYYADSVKGRFTISRDNAKNTVYLQMNSLKPEDTAVYYCNTVSFSWGYSAYDYWGQGTQVTVSS	low polyreactivity
QVQLVESGGGLVQAGGSLRLSCADSGRIFRYYAMGWYRQAPGKERELVAAITWSGGTTIYADSVKGRFSISRDNAKNTVYLQMNSLKPEDTAVYYCNAARSRGANLVPPYRLYYWGQGTQVTVSS	low polyreactivity
QVQLVESGGGLVQAGGSLRLSCAASGSILRSNAMGWYRQAPGKERELVAAITFNGGSTYADSVKGRFTISRDNAKNTVYLQMNSLIPEDTAVYYCATGDGPSLFDYWGQGTQVTVSS	low polyreactivity
QVQLVESGGGLVQAGGSLRLSCAASGYNFYINPMGWYRQAPGKERELVATIRRRGGSTYYADSVKGRFTISRDNAKNTVYLQMNSLKPEDTAVYYCNAVTLGGKYVYQYRRGFDYWGQGTQVTVSS	high polyreactivity

Sequence	polyreactivity (PSR sort gate)
QVQLVESGGGLVQAGGSLRLSCAASGRILTRNALGWYRQAPGKERELVAAISTSGGRTYYADSVKGRFTISRDNAKNTVYLEMNSLKPEDTAVYYCAAYSASYGGYDYWGQGTQVTVSS	high polyreactivity
QVQLVESGGGLVQAGGSLRLSCAASGFIFWAYAMGWYRLAPGKERELVAAITWNGGSTNYADSVKGRFTISRDNAKNTVYLQMNSLKPEDTAVYYCAVSRSLSFRYPGYYWGQGTQVTVSS	low polyreactivity
QVQLVESWGGLVQAGGSLRLSCAASGSTFASYVMGWSRQAPGKERELVAAISRSGGSTYYADSVKGRFTISRDNAKYTVYLQMNSLKPEDTAVYYCNAPYLIYKKGRYDYWGQGTQVTVSS	high polyreactivity
QVQLVESGGGLVQAGGSLRLSCAASGSTFASNAMGWYRQAPGKERELVATINGDGSTNYADSVKGRFTISRDNAKNTVYLQMNSLKPEDTAVYYCNARYDYYGFWYQPYTLEVDYWGQGTQVTVSS	low polyreactivity
QVQLVESGGGLVQAGGSLRLSCAASGSTFVGYAMGWYRQAPGTERDLVAAISSSGSTNYADSVKGRFTISRDNAKNTVYLQMNSLKPEDTAVYYCAALYSYFWLIIDYGYWGQGTQVTVSS	low polyreactivity
QVQLVESGGGLVQAGGSLRLSCAASGSIFKFYTMGWYRQAPGKERELVAAISWSGGRTYYADSVKGRFTISRDNAKNTVYLQMNSLKPEDTAVYYCAVPRVGLHGIGSDYWGQGTQVTVSS	high polyreactivity
QVQLVESGGGLVQAGGSLRLRCAASGFIFQINAMGWYRQAPGKEREFVAAISRSVGSTSYADSVKGRFTISRDNAKNTVYLQMNSLKPEDTAVYYCNAAQRKRKGPYDYWGQGTQVTVSS	high polyreactivity
QVQLQESSGGLVQAGGSLRMSCAASGTIFHFHIMGWYRQAPGKESEFVAAISYGTSTYYADSVKGRFTISRDNAKNTVYLQMNSQKPEDSAVNYCAVYDYLEVYCWYWGQGTQVTVSS	low polyreactivity
QVQLVESGGGLVQAGGSLRLSCAASGYISYVNAMGWYRQAPGKERELVAAISGRGGSTYYADSVKGRFTISRDNAKNNVYLQMNSLKPEDTAVYYCAADLYYSYYWGQGTQVTVSS	low polyreactivity
QVQLVESGGGLVQAGGSLRLSCAASGIIYGNVMGWYRQAPGKESELVAAITGSGGSTYYADSVKGRFTISRDNAKNTVYLQMNSLKPEDTAVYYCAADLALYNTLYLTLPDYYWGEGTQVTVSS	low polyreactivity
QVQLVESGGGLVQAGGSLRLSCAASGYTFGEYAMGWYRQAPGKERELVATISLSDGSTNYADSVKGRFTISRDNAKNTVYLQMNSLKPEDTAVYYCATTVWYKKAPYPDGDYWGQGTQVTVSS	low polyreactivity
QVQLVESGGGLVQAGGSLRLSCAASGFTFKTYVMGWYRQAPGKERELVAAISRRGGSTHYADSVKGRFTISRDNAKNTVYLQMNSLKPEVTAVYYCAARHPFAGTVWGVVSYDYWGQGTLVTVSS	high polyreactivity
QVQLVESGGGLVQAGGSLRFSCAASGFTFVYNAMGWYRQAPGKERELVARISVSGGSTYYADSVKGRFTISRDNAKNTVYLQMNSLKPEDTAVYYCAAELSAPQPDYQQKVDYYYWGQGTQVTVSS	low polyreactivity
QVQLVESGGGLVQAGGSLRLSCAASGSTFHKYAMGWYRQAPGKEREFVAAISWSGGSTYYADSVKGRFTISRDNAKNTVYLQMNSLKPEDTAVYYCAAKGGVSRARWRSIFWHDYWGQGTQVTVSS	high polyreactivity
QVQLVESGGGLVQAGGSLRISCAASGFTFNKYAMGWYRQAPGKERELVAALTVSGSRTYYADSVKGRFTISRDNAKNTVYLQMNSLKPEDTAVYYCAARKWYYYLRPWTSVGGYYWGQGTQVTVSS	high polyreactivity
QVQLVESGGGLVQAGGSLRLSCAASGSIFSPNDMGWYRQAPGKERELVAAITSAGSTYYADSVKGRFTISRDNAKNTVYLQMNSLKPEDTAVYYCAATYISVTDYAYFPLWYGYWGQGTQVTVSS	low polyreactivity
QVQLVESGGGLVQAGGSLRLSCAVSGRIFRRNVMGWSRPAPGKERALVAGSSYSGDSTYYADSVKGRFTISRDNAKNTVYLQMNSLKPEDTAVYYCAAALAHYRGMYYWGQGTQVTVSS	low polyreactivity
QVQLVETAGGLVQAGGSLRLSCAASGSTFYTNAMGWYRQAPGKERELVAAISGSGGSTYYADSVKGRFTISRDNAKNTVYLQMISLKPEDTAVYNCAARSRYYDTRFDYWGQGTQVTVSS	low polyreactivity
QVQLEESGGGLVQAGVSLRLSCAASGIIFHFNDMVWYRQAPGKERELLAAIDSTGSTNYADSVKGRFTISRDNAKNTVYLQMNSLKPEDTAVYYCAVLNHRVDSVLTRYYYWGQGTQVTVSS	low polyreactivity
QVQLVESGGGLVQAGGSLRLSCAASGNTFANYAMGWYRQAPGKERELVAAITSNGGSTYYADSVKGRFTISRDNAKNTVYLQMNSLKPEDTAVYYCAAPGAISTRSRYGPGYTYDYWGQVTQVTVSS	low polyreactivity
QVQLVESGGGLVQAGGSLRLSCAASGRIFPINVMGWYRQAPGKERELVAAISGRGGSTYYADSVKGRFTISRDNAKNTVYLQMNSLKPEDTAVYYCAARSPYRYYYWGQGTQVTVSS	high polyreactivity
